Consider eight molecules from US20260234242A1 (HAINAN SIMCERE ZAIMING PHARMACEUTICAL, published 2026).

Like-named read-outs stand apart in the source and are kept apart here.

One may read the EC50 as the concentration needed to bring the measured effect to its halfway point. The low end stands for greater potency, the high end for weaker potency.

Assay [1] addresses T1, human CDH6 on tumor cells (OVCAR3 cells, PA-1 cells) (human, UniProt P55285 54-790).
T1 sequence: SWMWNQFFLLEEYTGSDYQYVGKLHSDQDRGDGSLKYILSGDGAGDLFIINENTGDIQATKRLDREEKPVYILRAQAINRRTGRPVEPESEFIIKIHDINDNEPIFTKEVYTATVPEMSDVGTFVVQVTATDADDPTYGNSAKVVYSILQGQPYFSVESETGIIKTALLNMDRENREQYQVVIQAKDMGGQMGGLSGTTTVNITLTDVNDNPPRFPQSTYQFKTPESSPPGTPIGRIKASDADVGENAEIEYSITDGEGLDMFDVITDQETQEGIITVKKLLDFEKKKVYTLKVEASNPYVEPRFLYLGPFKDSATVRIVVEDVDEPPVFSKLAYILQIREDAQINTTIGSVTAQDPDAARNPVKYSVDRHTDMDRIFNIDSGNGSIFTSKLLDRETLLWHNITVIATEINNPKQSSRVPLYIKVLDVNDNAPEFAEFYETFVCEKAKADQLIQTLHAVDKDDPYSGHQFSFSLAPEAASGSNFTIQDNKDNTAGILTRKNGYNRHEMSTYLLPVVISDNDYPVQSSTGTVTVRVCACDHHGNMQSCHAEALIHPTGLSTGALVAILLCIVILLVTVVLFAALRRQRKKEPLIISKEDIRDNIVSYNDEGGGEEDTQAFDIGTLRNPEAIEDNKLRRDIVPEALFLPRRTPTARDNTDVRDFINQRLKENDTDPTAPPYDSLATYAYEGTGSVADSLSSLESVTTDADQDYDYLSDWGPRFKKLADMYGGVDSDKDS
Put plainly: FACS, OVCAR3 cells. As for the experimental part: (§1) OVCAR3 cells with high expression of CDH6 and PA-1 cells with moderate expression of CDH6 were used to detect the binding activity of the antibodies to the cells. […] The cells were washed once with PBS, counted, resuspended to 2×10⁶ cells/mL in an FACS buffer (PBS+2% FBS), and then added to a 96-well plate at 50 μL/well. The chimeric antibodies were diluted with FACS buffer (PBS+2% FBS) and added to the 96-well plate at 50 μL/well, and the plate was incubated at 4° C. for 1 h. […] The dilution was added to the 96-well plate at 50 μL/well, and the plate was incubated at 4° C. for 1 h. After the plates were centrifuged and washed 2 times with PBS, the cells were resuspended in an FACS buffer. The mean fluorescence intensity (MFI) was measured using FACS Canton II (BD). Analysis was performed by the GraphPad Prism software, data were fitted, and EC50 values were calculated. The chimeric antibodies tested had strong binding to both OVCAR3 cells and PA-1 cells.
(§2) According to the above sequences, heavy chain (HC) and light chain (LC) plasmids were constructed (the nucleic acid sequences encoding the VH and VL of the antibodies were recombined into an expression vector carrying a signal peptide (SEQ ID NO: 132, […]) and a heavy chain constant region/light chain constant region sequence to obtain recombinant plasmids expressing VH-CH1-Fc/VL-CL). According to the expression and purification methods in Example 2, the hCDH6-1 humanized antibodies were obtained, and the binding activity of the humanized antibodies was detected by ELISA and FACS (see 2.2 and 2.3 for the method).

The target in assay [2] is T2, his-tagged human CDH6 extracellular region protein (hCDH6 ECD-his) (human, UniProt P55285 19-615).
T2 construct: also called Human CDH6-his; hCDH6-his; not shown: his tag
T2 sequence: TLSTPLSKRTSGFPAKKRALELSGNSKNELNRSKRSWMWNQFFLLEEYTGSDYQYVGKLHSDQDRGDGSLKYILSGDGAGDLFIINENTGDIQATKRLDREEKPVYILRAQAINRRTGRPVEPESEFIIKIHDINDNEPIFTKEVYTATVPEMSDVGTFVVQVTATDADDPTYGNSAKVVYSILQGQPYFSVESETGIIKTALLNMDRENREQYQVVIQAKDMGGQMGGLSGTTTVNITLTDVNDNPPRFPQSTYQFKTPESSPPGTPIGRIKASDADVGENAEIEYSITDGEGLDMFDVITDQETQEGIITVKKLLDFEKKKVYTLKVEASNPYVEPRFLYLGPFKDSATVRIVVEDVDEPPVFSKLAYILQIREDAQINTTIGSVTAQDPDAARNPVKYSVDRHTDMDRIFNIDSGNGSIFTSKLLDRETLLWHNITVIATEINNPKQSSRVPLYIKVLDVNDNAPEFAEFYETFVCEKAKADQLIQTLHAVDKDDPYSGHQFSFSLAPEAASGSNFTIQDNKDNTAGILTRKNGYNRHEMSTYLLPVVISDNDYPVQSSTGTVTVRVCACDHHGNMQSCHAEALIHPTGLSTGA
Put plainly: ELISA, coated antigen. On the procedure:
(§3) Human CDH6 protein (hCDH6 ECD-his, conventionally synthesized), monkey CDH6 protein (cynoCDH6 ECD-his, conventionally synthesized; the cynoCDH6 ECD sequence was derived from Uniprot #A0A2K5TW62 (19-615)), and murine CDH6 protein (mCDH6 ECD-his, conventionally synthesized; the mCDH6 ECD sequence was derived from Uniprot #P97326 (19-615)) were diluted with PBS to a final concentration of 1 μg/mL, and added to a 96-well ELISA plate at 100 μL/well. The plate was incubated at 4° C. overnight. The next day, the plate was washed 3 times with a plate washing solution (PBS+0.01% (v/v) Tween 20), and a blocking buffer (PBS+0.01% (v/v) Tween 20+2% (w/w) BSA) was added for blocking at room temperature for 2 h. The blocking buffer was discarded, and the plate was washed 3 times. The chimeric antibodies were diluted with 1% BSA+PBS (purchased from Cytiva, Cat. No. SH30264.01) and added to the 96-well plate at 50 μL/well. After incubation at 37° C. for 2 h, the plate was washed 3 times with a plate washing solution. […] The plate was incubated at 37° C. for 1 h and then washed 5 times with a plate washing solution. A TMB substrate (purchased from Seracare, Cat. No. 5120-0077) was added at 50 μL/well and incubated at room temperature for 10 min, then a stop solution (1.0 N HCl) was added at 50 μL/well. OD450 nm values were read using a microplate reader (Biotek). Analysis was performed by the GraphPad Prism software, data were fitted, and EC50 values were calculated. The chimeric antibodies tested all had strong binding to the human CDH6 protein, the monkey CDH6 protein, and the murine CDH6 protein.
According to the above sequences, heavy chain (HC) and light chain (LC) plasmids were constructed (the nucleic acid sequences encoding the VH and VL of the antibodies were recombined into an expression vector carrying a signal peptide (SEQ ID NO: 132, […]) and a heavy chain constant region/light chain constant region sequence to obtain recombinant plasmids expressing VH-CH1-Fc/VL-CL).
In general terms: An ELISA detects its analyte on a solid surface through an enzyme-linked reagent.

The target in assay [3] is T2, his-tagged human CDH6 extracellular …. Briefly: ELISA, coated antigen. As for the experimental part:
as §3
According to the above sequences, heavy chain (HC) and light chain (LC) plasmids were constructed (the nucleic acid sequences encoding the VH and VL of the antibodies were recombined into an expression vector carrying a signal peptide (SEQ ID NO: 132, […]) and a heavy chain constant region/light chain constant region sequence to obtain recombinant plasmids expressing VH—CH1-Fc/VL-CL).
The source holds these as a separate data set.

In assay [4] the target is T1, human CDH6 on tumor cells (OVCAR3 …). Briefly: FACS, OVCAR3 cells. On the procedure: as §1
as §2, with “VH—CH1-Fc/VL-CL).” for “VH-CH1-Fc/VL-CL).”, “hCDH6-6” for “hCDH6-1”
The source holds these as a separate data set. Background: In flow cytometry, cells or beads pass a laser one at a time.

B1: hCDH6-1-H2L1 (antibody, V domains shown)
VH: EVQLVQSGAEVKKPGSSVKVSCKASGYTFTNYWMHWVRQAPGQGLEWMGDIDPSHSETHYTQKFKDRVTITVDKSTSTAYMELSSLRSEDTAVYYCARGDLGRFDYWGQGTTVTVSS
VL: DIVMTQSPDSLAVSLGERATINCRASESVSIHGTHLMHWYQQKPGQPPKLLIYAASNLESGVPDRFSGSGSETDFTLTISSLQAEDVAVYYCQQSFEDPWTFGGGTKVEIK
notes: Humanized
With B1, in assay [1], a half-maximal effect (EC50) was put at 228 pM and the “Max MFI” value was determined as 14500 MFI. In addition, in assay [2], the EC50 worked out at 46 pM and the “Max OD450” value is 2.65 OD450.

B2: hCDH6-1-H2L2 (antibody, V domains shown)
VH: EVQLVQSGAEVKKPGSSVKVSCKASGYTFTNYWMHWVRQAPGQGLEWMGDIDPSHSETHYTQKFKDRVTITVDKSTSTAYMELSSLRSEDTAVYYCARGDLGRFDYWGQGTTVTVSS
VL: DIVMTQSPDSLAVSLGERATINCRASESVSIHGTHLMHWYQQKSGQPPKLLIYAASNLESGVPDRFSGSGSETDFTLTISSLQAEDVAVYYCQQSFEDPWTFGGGTKVEIK
notes: Humanized
As for B2, in assay [1], the EC50 was 147 pM and the “Max MFI” value amounted to 14300 MFI. Moreover, in assay [2], the EC50 was determined as 26 pM and the “Max OD450” value worked out at 2.63 OD450.

B3: hCDH6-1-H3L1 (antibody, V domains shown)
VH: EVQLVQSGAEVKKPGSSVKVSCKASGYTFTNYWMHWVRQAPGQGLEWMGDIDPSHSETHYTQKFKDRVTLTVDKSTSTAYMELSSLRSEDTAVYYCARGDLGRFDYWGQGTTVTVSS
VL: DIVMTQSPDSLAVSLGERATINCRASESVSIHGTHLMHWYQQKPGQPPKLLIYAASNLESGVPDRFSGSGSETDFTLTISSLQAEDVAVYYCQQSFEDPWTFGGGTKVEIK
notes: Humanized
On to B3, for which, in assay [1], the response was half-maximal at 154 pM (EC50) and the “Max MFI” value was found to be 14600 MFI. In addition, in assay [2], the EC50 came to 26 pM and the “Max OD450” value turned out to be 2.6 OD450.

B4: hCDH6-1-H4L2 (antibody, V domains shown)
VH: EVQLVQSGAEVKKPGSSVKVSCKASGYTFTNYWMHWVRQRPGQGLEWMGDIDPSHSETHYTQKFKDRVTITVDKSTSTAYMELSSLRSEDTAVYYCARGDLGRFDYWGQGTTVTVSS
VL: DIVMTQSPDSLAVSLGERATINCRASESVSIHGTHLMHWYQQKSGQPPKLLIYAASNLESGVPDRFSGSGSETDFTLTISSLQAEDVAVYYCQQSFEDPWTFGGGTKVEIK
notes: Humanized
Regarding B4, in assay [1], the EC50 stood at 176 pM and the “Max MFI” value was 15200 MFI. Besides, in assay [2], the EC50 stood at 26 pM and the “Max OD450” value was determined as 2.55 OD450.

B5: hCDH6-1-H4L1 (antibody, V domains shown)
VH: EVQLVQSGAEVKKPGSSVKVSCKASGYTFTNYWMHWVRQRPGQGLEWMGDIDPSHSETHYTQKFKDRVTITVDKSTSTAYMELSSLRSEDTAVYYCARGDLGRFDYWGQGTTVTVSS
VL: DIVMTQSPDSLAVSLGERATINCRASESVSIHGTHLMHWYQQKPGQPPKLLIYAASNLESGVPDRFSGSGSETDFTLTISSLQAEDVAVYYCQQSFEDPWTFGGGTKVEIK
notes: Humanized
For the molecule B5, in assay [1], a half-maximal effect (EC50) was put at 152 pM and the “Max MFI” value is 14000 MFI. Moreover, in assay [2], the response was half-maximal at 31 pM (EC50) and the “Max OD450” value was 2.62 OD450.

B6: hCDH6-1-H3L3 (antibody, V domains shown)
VH: EVQLVQSGAEVKKPGSSVKVSCKASGYTFTNYWMHWVRQAPGQGLEWMGDIDPSHSETHYTQKFKDRVTLTVDKSTSTAYMELSSLRSEDTAVYYCARGDLGRFDYWGQGTTVTVSS
VL: DIQMTQSPSSLSASVGDRVTITCRASESVSIHGTHLMHWYQQKPGKPPKLLIYAASNLESGVPSRFSGSGSETDFTFTISSLQPEDIATYYCQQSFEDPWTFGGGTKVEIK
notes: Humanized
B6: in assay [1], the EC50 worked out at 155 pM and the “Max MFI” value turned out to be 14600 MFI. In addition, in assay [2], a half-maximal effect (EC50) was put at 30 pM and the “Max OD450” value is 2.71 OD450.

B7: hCDH6-1-H3L2 (antibody, V domains shown)
VH: EVQLVQSGAEVKKPGSSVKVSCKASGYTFTNYWMHWVRQAPGQGLEWMGDIDPSHSETHYTQKFKDRVTLTVDKSTSTAYMELSSLRSEDTAVYYCARGDLGRFDYWGQGTTVTVSS
VL: DIVMTQSPDSLAVSLGERATINCRASESVSIHGTHLMHWYQQKSGQPPKLLIYAASNLESGVPDRFSGSGSETDFTLTISSLQAEDVAVYYCQQSFEDPWTFGGGTKVEIK
notes: Humanized
On to B7, for which, in assay [1], the EC50 is 167 pM and the “Max MFI” value was 14300 MFI. In assay [2], the EC50 is 26 pM and the “Max OD450” value was 2.58 OD450.

B8: hCDH6-6-H3L5 (antibody, V domains shown)
VH: EVQLVQSGAEVKKPGASVKVSCKASGYTFTDYYMAWVRQAPRQGLEWMGYIFPNSGGTDYSQKFKGRVTMTVDKSTSTVYMELSSLRSEDTAVYYCARELGADYGDYYAMDHWGQGTTVTVSS
VL: DIVMTQSPLSLPVTPGEPASISCRASENIDSYLAWYLQKPGKSPQLLVYSATLLADGVPDRFSGSGSGTDFTLKISRVEAEDVGVYYCQHYYRTPPTFGQGTKLEIK
notes: Humanized
In the case of B8, in assay [3], it took 43 pM to reach a half-maximal effect (EC50) and the “Max OD450” value came to 1.97 OD450. Also, in assay [4], the EC50 turned out to be 690 pM and the “Max MFI” value was determined as 14200 MFI.
